Test results as given in patent US20120027763A1 (TRANSGENE BIOTEK, published 2012).

Target: T1, TNFRSF17-epag
T1 construct: also called TNFRS17-epag
T1 peptide: KSRTGDEIILPRGLC
Assay: screening of ascites mAbs by specific Ag binding activity, after immunization with SEQ ID NO:2

binding result: binds
B1: TBL-CLN1 (antibody, V domains shown)
VH: EVKLVESGGGLVKPGGSLKLSCAASGITFSTYAMSWVRQTPEKRLEWVASITTGGNVYFPDSVKGRFTISRDNARNILYLQMSSLRSEDTAMYYCAGGITATRGTFAYWGQGTTLTVSS
VL: DVLMTQTPLSLPVSLGDQASISCRSSQSIGHSNGITYLEWYLQKPGQSPKLLIYKVSNRFSGVPDRFSGSGSGTDFTLKISRVEAEDLGVYYCFEGSHVPLTFGAGTKLELKR
notes: also called TBL-CLNI
